Here are results for six substances from patent publication US20120107329.

For this data set, the target named is recombinant human zonulin/pre-HP2 with a 6×His tag at the C-terminus, from baculovirus-infected Sf9 cells (UniProt P00738).
Sequence of recombinant human zonulin/pre-HP2 with a 6×His tag at the C-terminus, from baculovirus-infected Sf9 cells (P00738 19-406, tags left off): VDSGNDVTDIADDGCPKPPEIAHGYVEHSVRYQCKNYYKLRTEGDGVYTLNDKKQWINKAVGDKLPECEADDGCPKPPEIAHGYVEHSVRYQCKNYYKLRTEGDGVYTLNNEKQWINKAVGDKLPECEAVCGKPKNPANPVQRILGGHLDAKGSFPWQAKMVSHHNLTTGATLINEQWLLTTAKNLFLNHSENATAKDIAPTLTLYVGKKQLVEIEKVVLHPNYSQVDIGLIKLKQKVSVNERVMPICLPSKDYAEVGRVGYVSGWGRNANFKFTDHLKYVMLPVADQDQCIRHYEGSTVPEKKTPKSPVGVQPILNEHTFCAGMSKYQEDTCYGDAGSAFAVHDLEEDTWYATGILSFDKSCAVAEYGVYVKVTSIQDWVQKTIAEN
With matriptase, the “proteolytic cleavage, SDS-PAGE” value was “Matriptase, urokinase, thrombin, and plasma kallikrein did not cleave pre-HP2”. For plasma kallikrein, the “proteolytic cleavage, SDS-PAGE” value is “Matriptase, urokinase, thrombin, and plasma kallikrein did not cleave pre-HP2”. Take plasmin: the “proteolytic cleavage, SDS-PAGE” value is “plasmin caused complete degradation of the protein”. For thrombin the value was “Matriptase, urokinase, thrombin, and plasma kallikrein did not cleave pre-HP2”; for “trypsin (intestinal serine protease; trypsin-agarose beads, Sigma T-1763)”, “treatment with the intestinal serine protease trypsin led to the appearance of two major bands that migrated with molecular weights compatible with the a2 and b subunits of zonulin”; for urokinase, “Matriptase, urokinase, thrombin, and plasma kallikrein did not cleave pre-HP2”.
